The source of these data is US20220127313A1.

Holding throughout (test): cell-based or functional assay
In assay [1] the target is p38 MAPK β isoform, Q15759.
The target of assay [2] is p38 MAPK γ isoform, P53778.
For assay [3], the target named is p38 MAPK δ isoform, O15264.

Non-standard residues stand in square brackets, D forms with d. No end group written: not given here. pS = N[C@@H](COP(=O)(O)O)C(=O)O

Chain of p38 MAPK δ isoform, O15264 (O15264 whole entry, stated change not applied, canonical isoform): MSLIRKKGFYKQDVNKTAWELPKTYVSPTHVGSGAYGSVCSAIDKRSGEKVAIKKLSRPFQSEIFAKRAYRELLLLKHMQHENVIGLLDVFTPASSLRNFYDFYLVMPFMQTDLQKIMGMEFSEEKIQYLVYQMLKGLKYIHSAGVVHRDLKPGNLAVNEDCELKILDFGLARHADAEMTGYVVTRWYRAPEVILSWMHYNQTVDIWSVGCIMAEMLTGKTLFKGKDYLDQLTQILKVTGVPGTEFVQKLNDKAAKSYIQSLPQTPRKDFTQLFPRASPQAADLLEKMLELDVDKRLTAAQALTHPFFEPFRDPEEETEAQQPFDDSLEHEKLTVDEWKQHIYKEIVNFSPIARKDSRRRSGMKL
Chain of p38 MAPK γ isoform, P53778 (P53778 whole entry, canonical isoform): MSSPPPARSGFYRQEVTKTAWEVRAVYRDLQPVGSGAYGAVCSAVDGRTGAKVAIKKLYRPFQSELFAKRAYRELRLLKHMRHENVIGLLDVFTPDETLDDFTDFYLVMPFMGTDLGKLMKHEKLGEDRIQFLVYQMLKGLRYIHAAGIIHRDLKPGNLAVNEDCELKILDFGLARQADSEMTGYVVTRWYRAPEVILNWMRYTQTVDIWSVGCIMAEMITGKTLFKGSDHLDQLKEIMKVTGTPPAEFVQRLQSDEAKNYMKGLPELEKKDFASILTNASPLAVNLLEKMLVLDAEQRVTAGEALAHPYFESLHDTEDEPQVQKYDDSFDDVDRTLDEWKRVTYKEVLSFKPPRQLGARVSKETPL
Chain of p38 MAPK β isoform, Q15759 (Q15759 whole entry, canonical isoform): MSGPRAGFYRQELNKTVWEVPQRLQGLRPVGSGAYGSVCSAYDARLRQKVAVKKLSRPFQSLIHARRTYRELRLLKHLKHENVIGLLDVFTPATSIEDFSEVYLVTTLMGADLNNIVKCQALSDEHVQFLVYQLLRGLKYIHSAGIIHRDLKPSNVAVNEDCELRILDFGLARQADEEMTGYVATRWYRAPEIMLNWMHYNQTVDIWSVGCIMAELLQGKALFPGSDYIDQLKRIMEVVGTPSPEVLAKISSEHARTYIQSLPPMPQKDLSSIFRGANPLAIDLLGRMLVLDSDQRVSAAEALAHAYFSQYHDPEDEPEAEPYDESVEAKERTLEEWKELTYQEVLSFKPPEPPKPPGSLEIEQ

As for YARAAARQARASPAARRA[pS]AILPG [NiPp polypeptide (Niban phosphopeptide), …(pS)AILPG], the % inhibition in kinase profiling screen, NiPp at 100 µM in assay [1] is 5%; in assay [2], 3%; in assay [3], 3%.
